Assay results: US20240100176A1 (Eli Lilly, published 2024)

T1: IL-4Rα (target of the affinity engineering of Ab10; form not stated) (UniProt P24394 26-232, limits assumed)
T1 sequence (looked up): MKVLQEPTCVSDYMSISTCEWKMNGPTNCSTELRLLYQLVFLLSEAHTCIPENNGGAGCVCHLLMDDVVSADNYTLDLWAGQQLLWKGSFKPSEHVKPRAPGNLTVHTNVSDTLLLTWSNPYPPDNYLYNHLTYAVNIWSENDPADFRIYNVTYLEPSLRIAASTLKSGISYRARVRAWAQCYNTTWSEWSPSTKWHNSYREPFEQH

T2: human IL-4Rα on cells (human PBMC B cells and CD4+ T cells, Daudi cells, HEK-Blue IL-4/IL-13 cells, myeloid … (human, UniProt P24394 26-825))
T2 sequence: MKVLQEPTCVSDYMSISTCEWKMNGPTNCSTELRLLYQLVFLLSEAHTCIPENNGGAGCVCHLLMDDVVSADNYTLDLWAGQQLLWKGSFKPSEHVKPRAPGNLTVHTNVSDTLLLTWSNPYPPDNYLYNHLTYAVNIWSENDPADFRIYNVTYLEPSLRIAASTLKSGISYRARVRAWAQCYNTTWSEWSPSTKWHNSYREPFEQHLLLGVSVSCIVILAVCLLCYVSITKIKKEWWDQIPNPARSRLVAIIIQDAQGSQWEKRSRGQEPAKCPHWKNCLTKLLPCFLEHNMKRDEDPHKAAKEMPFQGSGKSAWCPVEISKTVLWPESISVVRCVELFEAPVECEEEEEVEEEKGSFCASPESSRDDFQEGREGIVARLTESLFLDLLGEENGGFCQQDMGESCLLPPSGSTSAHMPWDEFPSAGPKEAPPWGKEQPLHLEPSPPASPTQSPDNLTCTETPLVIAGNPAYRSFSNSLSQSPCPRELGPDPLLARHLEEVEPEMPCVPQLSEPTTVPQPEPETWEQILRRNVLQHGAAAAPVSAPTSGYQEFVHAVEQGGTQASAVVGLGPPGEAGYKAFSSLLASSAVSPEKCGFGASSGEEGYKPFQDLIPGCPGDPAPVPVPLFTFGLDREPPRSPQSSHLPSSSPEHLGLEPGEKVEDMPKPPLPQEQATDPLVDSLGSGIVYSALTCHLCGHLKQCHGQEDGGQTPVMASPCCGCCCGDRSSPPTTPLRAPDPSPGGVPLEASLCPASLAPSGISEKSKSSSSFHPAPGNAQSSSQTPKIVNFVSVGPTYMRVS

T3: human FcγRIIA_131H (CD32a) extracellular domain (human, UniProt P12318 34-217)
T3 construct: extracellular domain
T3 sequence (looked up): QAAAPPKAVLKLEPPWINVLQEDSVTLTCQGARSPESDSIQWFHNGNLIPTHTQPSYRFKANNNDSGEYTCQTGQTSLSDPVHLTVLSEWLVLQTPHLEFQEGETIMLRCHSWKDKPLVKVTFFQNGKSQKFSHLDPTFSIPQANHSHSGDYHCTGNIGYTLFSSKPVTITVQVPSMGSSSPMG

T4: human FcγRIIb (CD32b) extracellular domain (human, UniProt P31994 43-217)
T4 construct: extracellular domain
T4 sequence (looked up): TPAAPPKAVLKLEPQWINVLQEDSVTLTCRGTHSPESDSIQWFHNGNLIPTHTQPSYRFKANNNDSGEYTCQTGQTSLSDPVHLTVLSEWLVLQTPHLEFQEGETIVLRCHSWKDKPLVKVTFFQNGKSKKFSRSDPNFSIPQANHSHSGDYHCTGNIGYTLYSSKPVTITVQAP


What was measured:
[1] = target: T1, IL-4Rα (target of the affinity …); test: affinity during CDR mutagenesis of Ab10 (engineered as a Fab); method and antigen form not stated; order of magnitude only
[2] = target: T2, human IL-4Rα on cells (human PBMC B …); test: cell-based or functional assay
[3] = target: T2, human IL-4Rα on cells (human PBMC B …); test: cell-based or functional assay; remark: listed apart in the source
[4] = target: T2, human IL-4Rα on cells (human PBMC B …); test: flow cytometry on human PBMCs, B cells, Alexa Fluor 647 labelled antibody
Method: (§1) Example 3b. Binding to B cells and T cells: Binding of the exemplified anti-human IL-4Rα antibodies to B cells and T cells was tested in a Fluorescence Activated Cell Sorting (FACS) assay. […] Freshly isolated cells PBMCs were resuspended at 2×10⁶ cells/mL and allowed to rest for 15 minutes at room temperature, then plated at 100 μL/well into a round bottom 96-well plate (COSTAR®) and washed with FACS buffer (PBS containing 2% fetal bovine serum from Corning®). Exemplified anti-human IL-4Rα antibodies and the respective control IgG antibodies conjugated to Alexa Fluor® 647 according to manufacturer's protocol (Thermo Fisher Scientific) were added to the wells at 66.67 nM and diluted 4-fold in duplicate. Equivalent volume of 2× antibody cocktail containing: Human TruStain FcX™. FITC anti-human CD3 Antibody, Alexa Fluor® 700 anti-human CD4 Antibody (all from Biolegend®) and CD20 Monoclonal Antibody (2H7), PerCP-Cyanine5.5 (Thermo Fisher Scientific) was then added to the wells. Cells were incubated at 4° C. for 30 minutes, washed twice with FACS buffer and resuspended in a final volume of 100 μL FACS buffer. Viability dye, Sytox™ blue (Thermo Fisher Scientific), was added and the samples were analyzed via a flow cytometer (LSRFortessa™ X-20; BD BIOSCIENCES). Data analysis was performed using FlowJo software and statistical analysis was performed using GraphPad Prism 9. […]

[5] = target: T5, human FcγRI (CD64) extracellular domain (human, UniProt P12314 16-292); test: SPR (Biacore), antibody captured on protein A, FcγR ECD as analyte, 25 °C
T5 construct: extracellular domain
Method: Unreacted sites were blocked with a 7 minute injection of ethanolamine at 10 μL/minute. Injections of 2×10 μL of glycine, pH 1.5, was used to remove any noncovalently associated protein. Running buffer was 1×HBS-EP+(TEKNOVA, P/N H8022). The FcγR extracellular domains (ECDs)-FcγRI (CD64), FcγRIIA_131R, and FcγRIIA_131H (CD32a), FcγRIIIA_158V, FcγRIIIA_158F (CD16a), and FcγRIIb (CD32b) were produced from stable CHO cell expression and purified using IgG Sepharose and size exclusion chromatography. For FcγRI binding, antibodies were diluted to […] in running buffer, and approximately 150 RU of each antibody was captured in FCs 2 through 4 (RU captured). FC1 was the reference FC, therefore no antibody was captured in FC1. […] Duplicate injections of each concentration were injected over all FCs at 40 μL/minute for 120 seconds followed by a 1200 second dissociation phase. Regeneration was performed by injecting 15 μL of 10 mM glycine, pH 1.5, at 30 μL/minute over all FCs. […] The affinity (KD) was calculated using either steady state equilibrium analysis with the Scrubber 2 Biacore Evaluation Software or a “1:1 (Langmuir) binding” model in BIA Evaluation. […] The affinity (KD) was calculated using the steady state equilibrium analysis with the Scrubber 2 Biacore Evaluation Software. […]

[6] = target: T3, human FcγRIIA_131H (CD32a) …; test: SPR (Biacore), antibody captured on protein A, FcγR ECD as analyte, steady state, 25 °C
Method: (§2) Unreacted sites were blocked with a 7 minute injection of ethanolamine at 10 μL/minute. Injections of 2×10 μL of glycine, pH 1.5, was used to remove any noncovalently associated protein. Running buffer was 1×HBS-EP+(TEKNOVA, P/N H8022). The FcγR extracellular domains (ECDs)-FcγRI (CD64), FcγRIIA_131R, and FcγRIIA_131H (CD32a), FcγRIIIA_158V, FcγRIIIA_158F (CD16a), and FcγRIIb (CD32b) were produced from stable CHO cell expression and purified using IgG Sepharose and size exclusion chromatography. For FcγRI binding, antibodies were diluted to […] in running buffer, and approximately 150 RU of each antibody was captured in FCs 2 through 4 (RU captured). FC1 was the reference FC, therefore no antibody was captured in FC1. […] Duplicate injections of each concentration were injected over all FCs at 40 μL/minute for 120 seconds followed by a 1200 second dissociation phase. Regeneration was performed by injecting 15 μL of 10 mM glycine, pH 1.5, at 30 μL/minute over all FCs. Reference-subtracted data was collected as FC2 FC1, FC3-FC1, and FC4-FC1 and the measurements were obtained at 25° C. The affinity (KD) was calculated using either steady state equilibrium analysis with the Scrubber 2 Biacore Evaluation Software or a “1:1 (Langmuir) binding” model in BIA Evaluation. For FcγRIIa, FcγRIIb, and FcγRIIIa binding, antibodies were diluted to 5 μg/mL in running buffer, and approximately 500 RU of each antibody was captured in FCs 2 through 4). FC1 was the reference FC. […] Duplicate injections of each concentration were injected over all FCs at 40 μL/minute for 60 seconds followed by a 120 second dissociation phase. Regeneration was performed by injecting 15 μL of 10 mM glycine, pH 1.5, at 30 μL/minute over all FCs. Reference-subtracted data was collected as FC2-FC1, FC3-FC1, and FC4-FC1, and the measurements were obtained at 25° C. The affinity (KD) was calculated using the steady state equilibrium analysis with the Scrubber 2 Biacore Evaluation Software. Each receptor was assayed at least two times.

[7] = target: T4, human FcγRIIb (CD32b) extracellular …; test: as above
Method: as §2

[8] = target: T2, human IL-4Rα on cells (human PBMC B …); test: flow cytometry on human PBMCs, CD20 B cells, Alexa Fluor 647 labelled antibody, percent IL-4Rα positive cells
Method: as §1

[9] = target: T2, human IL-4Rα on cells (human PBMC B …); test: flow cytometry on human PBMCs, CD4-positive T cells, Alexa Fluor 647 labelled antibody, percent IL-4Rα positive cells
Method: as §1

T5 sequence (P12314 16-292): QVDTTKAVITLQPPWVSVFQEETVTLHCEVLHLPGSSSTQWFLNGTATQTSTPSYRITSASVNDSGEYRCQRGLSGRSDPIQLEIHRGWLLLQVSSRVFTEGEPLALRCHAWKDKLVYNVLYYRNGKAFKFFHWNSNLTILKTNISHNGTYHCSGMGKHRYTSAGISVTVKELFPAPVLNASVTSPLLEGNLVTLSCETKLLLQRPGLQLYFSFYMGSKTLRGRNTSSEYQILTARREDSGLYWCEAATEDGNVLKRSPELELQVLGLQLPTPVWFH

Row | IL-4 IC50 (nM): inhibition of IL-4 induced SEAP activity in HEK-Blue IL-4R and IL-13R expressing cells [2] | IL-13 IC50 (nM): inhibition of IL-13 induced SEAP activity in HEK-Blue IL-4R and IL-13R expressing cells [2] | Inhibition of IL-4 induced B cell proliferation, IC50 [3] | EC50 [4] | Kd [5] | Kd [6] | Kd [7] | EC50 [8] | EC50 [9] | Binder | Kd [1]
1 | – | – | – | – | – | – | – | – | – | Ab10 variant with the LCDR3 substitutions H91W, N92S (antibody, V domains shown, also called the resulting antibody) VH: QVQLVESGGGLVQPGGSLRLSCAASGFTFSISSMNWVRQAPGKGLEWVSYISRATGAIYYADSVKGRFTISRNNAKNSLYLQMNSLRDEDTAVYYCAREPVFDYWGQGTLVTVSS VL: DIQMTQSPSAMSASVGDRVTITCRASQGISNYLAWFQQKPGKVPTRLIYAASSLQSGVPSRFSGSGSGTEFTLTISSLQPEDFATYYCLQWSSYPRTFGQGTKVEIK | ~0.01 nM
2 | 0.07 nM | 0.51 nM | 0.95 nM | 0.27 nM | 0.0428 nM | 1240 nM | 3020 nM | 0.14 nM | 28.7 nM | anti-human IL-4Rα antibody Ab7 (antibody, human IgG1, kappa, Human IgG1 backbone) heavy: not shown light: DIQMTQSPSAMSASVGDRVTITCRASQDISNYLAWFQQKPGKVPTRLIYAASSLQSGVPSRFSGSGSGTEFTLTISSLQPEDFATYYCLQWSSYPRTFGQGTKVEIKRTVAAPSVFIFPPSDEQLKSGTASVVCLLNNFYPREAKVQWKVDNALQSGNSQESVTEQDSKDSTYSLSSTLTLSKADYEKHKVYACEVTHQGLSSPVTKSFNRGEC | –
